Assay results taken from patent US20240271115A1.

Target: Human IgG in human serum

B1: Recombinant IdeS expressed from codon-optimized cDNA IdeS^op2 (pGEX-IdeS^op2), designated Ab-C (protein)
chain: RKRCYSTSAVVLAAVTLFALSVDRGVIADSFSANQEIRYSEVTPYHVTSVWTKGVTPPAKFTQGEDVFHAPYVANQGWYDITKTFNGKDDLLCGAATAGNMLHWWFDQNKEKIEAYLKKHPDKQKIMFGDQELLDVRKVINTKGDQTNSELFNYFRDKAFPGLSARRIGVMPDLVLDMFINGYYLNVYKTQTTDVNRTYQEKDRRGGIFDAVFTRGDQSKLLTSRHDFKEKNLKEISDLIKKELTEGKALGLSHTYANVRINHVINLWGADFDSNGNLKAIYVTDSDSNASIGMKKYFVGVNSAGKVAISAKEIKEDNIGAQVLGLFTLSTGQDSWNQTN
Q: With B1 as the protein, how does the “IgG cleavage, PAGE-Coomassie stain, purified normalized IdeS samples incubated with human serum for 1 h” value read?
A: Its value is “The results showed more effective IgG cleavage by IdeS^op2”.
